Data as given in patent US20230012273A1 (Boehringer Ingelheim, published 2023).
One block for each binder: values may come before it.

Key:
[1] = target: T1, cynomolgus SIRPβ1v3 (XP_005568593) extracellular domain + His-tag (cynomolgus monkey); assay: SPR, antibody captured, ECD-His analyte
T1 construct: SPR analyte; also called Cyno SIRPβ1v3 XP_005568593; cynoSIRPβ1v3; not shown: His-tag
T1 chain: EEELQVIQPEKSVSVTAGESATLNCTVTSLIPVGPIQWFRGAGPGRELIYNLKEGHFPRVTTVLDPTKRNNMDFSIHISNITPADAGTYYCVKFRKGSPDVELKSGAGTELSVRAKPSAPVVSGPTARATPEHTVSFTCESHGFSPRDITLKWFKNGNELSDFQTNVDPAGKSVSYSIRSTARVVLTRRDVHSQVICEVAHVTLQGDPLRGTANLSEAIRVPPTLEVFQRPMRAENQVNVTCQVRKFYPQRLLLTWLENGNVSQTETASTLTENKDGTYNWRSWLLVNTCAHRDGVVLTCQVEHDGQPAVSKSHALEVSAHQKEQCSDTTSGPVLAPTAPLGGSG
Method: (§1) The binding affinity of anti-SIRPα antibodies to the various SIRPα analytes is determined by surface plasmon resonance (SPR) using a ProteOn XPR36 (Bio-Rad). The running buffer for this experiment and all dilutions (except where stated) are done in 1×HBS-EP+. […] The sensorchip is deactivated with 1M ethanolamine HCl for 420 sec at a flowrate of 10 μl/min.
(§2) The analyte is injected over the captured antibody for 300 sec at a flowrate of 30 μl/min. The dissociation is done for 600 sec. Two-fold serial dilutions of each SIRP protein (Extracellular Domain+His-Tag) are injected as analyte with the highest concentrations indicated in table 36 below.

[2] = target: T2, cynomolgus SIRPα (NP_001271679) extracellular domain + His-tag (cynomolgus monkey); assay: SPR, antibody captured, ECD-His analyte
T2 construct: SPR analyte; also called CySIRPα NP_001271679; cynoSIRPα; not shown: His-tag
T2 chain: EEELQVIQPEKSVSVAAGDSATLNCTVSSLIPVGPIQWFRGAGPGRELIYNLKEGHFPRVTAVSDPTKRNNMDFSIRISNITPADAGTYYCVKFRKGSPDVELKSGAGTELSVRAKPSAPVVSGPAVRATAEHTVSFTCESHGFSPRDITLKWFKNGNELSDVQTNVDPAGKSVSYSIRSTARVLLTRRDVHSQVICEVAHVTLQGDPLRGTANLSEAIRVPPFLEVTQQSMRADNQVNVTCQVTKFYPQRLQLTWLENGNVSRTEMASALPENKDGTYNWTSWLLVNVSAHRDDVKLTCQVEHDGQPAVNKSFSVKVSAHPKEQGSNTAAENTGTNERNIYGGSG
Method: as §1, §2

[3] = target: T3, cynomolgus SIRPβ1 (XP_005568598) extracellular domain + His-tag (cynomolgus monkey); assay: SPR
T3 construct: SPR analyte; also called Cyno SIRPβ1 XP_005568598; cynoSIRPβ1; not shown: His-tag
T3 chain: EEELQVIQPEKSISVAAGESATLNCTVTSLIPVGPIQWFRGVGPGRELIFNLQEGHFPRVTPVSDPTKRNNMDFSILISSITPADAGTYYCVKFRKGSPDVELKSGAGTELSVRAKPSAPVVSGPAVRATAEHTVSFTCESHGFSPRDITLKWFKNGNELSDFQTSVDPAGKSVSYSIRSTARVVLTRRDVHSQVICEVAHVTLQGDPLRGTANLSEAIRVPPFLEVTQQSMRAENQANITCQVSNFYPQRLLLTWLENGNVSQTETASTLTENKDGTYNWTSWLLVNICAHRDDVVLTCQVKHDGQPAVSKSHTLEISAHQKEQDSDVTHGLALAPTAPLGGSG
Method: as §1, §2

[4] = target: T4, cynomolgus SIRPα (EGM_02252) extracellular domain + His-tag (cynomolgus monkey); assay: SPR
T4 construct: SPR analyte; also called CySIRPα EGM_02252; cynoSIRPα; not shown: His-tag
T4 chain: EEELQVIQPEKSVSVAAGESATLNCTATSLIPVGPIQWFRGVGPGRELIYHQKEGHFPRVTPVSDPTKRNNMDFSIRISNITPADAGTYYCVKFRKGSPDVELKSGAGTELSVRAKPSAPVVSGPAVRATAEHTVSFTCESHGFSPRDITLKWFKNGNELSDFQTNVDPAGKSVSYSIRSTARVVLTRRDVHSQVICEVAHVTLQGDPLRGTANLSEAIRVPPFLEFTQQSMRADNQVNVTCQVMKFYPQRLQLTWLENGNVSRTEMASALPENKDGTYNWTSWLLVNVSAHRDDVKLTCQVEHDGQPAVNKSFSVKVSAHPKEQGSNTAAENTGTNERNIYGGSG
Method: as §1, §2

[5] = target: T5, cynomolgus SIRPγ (XP_005568591) extracellular domain + His-tag (cynomolgus monkey, UniProt Q9P1W8 29-359 (human entry)); assay: SPR
T5 construct: SPR analyte; also called Cyno SIRPγ XP_005568591; cynoSIRPγ; not shown: His-tag
T5 chain: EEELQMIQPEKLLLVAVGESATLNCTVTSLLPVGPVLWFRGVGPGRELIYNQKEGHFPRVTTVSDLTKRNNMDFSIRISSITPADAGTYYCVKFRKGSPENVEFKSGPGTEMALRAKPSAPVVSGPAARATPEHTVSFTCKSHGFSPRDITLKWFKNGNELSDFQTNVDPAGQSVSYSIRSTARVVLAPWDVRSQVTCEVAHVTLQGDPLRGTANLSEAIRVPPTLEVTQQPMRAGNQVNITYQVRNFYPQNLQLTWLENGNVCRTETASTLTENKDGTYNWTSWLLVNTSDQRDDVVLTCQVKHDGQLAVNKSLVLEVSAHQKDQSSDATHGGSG
Method: as §1, §2

[6] = target: T6, SIRPαV2 domain 1 (amino acids 31-148) with N-terminal GST tag (human, UniProt Q5TFQ8 30-148); assay: crystal structure
T6 construct: also called domain 1 of the extracellular domain of human SIRPα-V2
T6 sequence (Q5TFQ8 other isoform, or with tags, fused parts or gaps): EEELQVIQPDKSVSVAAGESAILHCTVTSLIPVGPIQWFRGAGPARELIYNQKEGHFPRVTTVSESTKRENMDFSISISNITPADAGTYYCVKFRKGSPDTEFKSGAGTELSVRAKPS
Method: Protein was expressed in Origami B(DE3) cells and purified using standard protocols for GST-tagged proteins. Fractions were analyzed by SDS-PAGE and fractions containing the desired protein were pooled and concentrated to 24 mg/ml in 25 mM HEPES; 100 mM NaCl; 5% Glycerin; pH 7,0.

[7] = target: T7, mouse SIRPα extracellular domain + His-tag (NP_031573) (mouse, UniProt P97797 32-373); assay: SPR, Ab captured, ECD-His analyte
T7 chain: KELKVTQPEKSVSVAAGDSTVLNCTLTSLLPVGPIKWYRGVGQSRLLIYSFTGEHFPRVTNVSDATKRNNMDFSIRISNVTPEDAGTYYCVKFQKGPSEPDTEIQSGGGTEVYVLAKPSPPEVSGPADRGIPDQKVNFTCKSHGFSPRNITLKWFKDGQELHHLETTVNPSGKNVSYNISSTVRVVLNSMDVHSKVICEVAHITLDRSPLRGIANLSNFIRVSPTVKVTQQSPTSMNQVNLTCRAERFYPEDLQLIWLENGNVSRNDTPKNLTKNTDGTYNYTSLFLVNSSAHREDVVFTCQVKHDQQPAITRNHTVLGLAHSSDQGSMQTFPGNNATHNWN
How it was run: (§3)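 In HBS-EP+ (1×), captured antibodies are exposed to a twofold concentration series of SIRP extracellular domain carrying a His tag, using 300 s contact at 30 μl/min and a 600 s dissociation window.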

[8] = target: T8, cynomolgus SIRPα extracellular domain + His-tag (NP_001271679) (cynomolgus monkey); assay: SPR, Ab captured, ECD-His analyte
T8 construct: also called CySIRPα NP_001271679; cynoSIRPα
T8 chain: T2 chain
How it was run: as §3

[9] = target: T9, cynomolgus SIRPβ1v3 extracellular domain + His-tag (XP_005568593) (cynomolgus monkey); assay: SPR, Ab captured, ECD-His analyte
T9 construct: also called Cyno SIRPβ1v3; cynoSIRPβ1v3
T9 chain: T1 chain
How it was run: as §3

[10] = target: T10, cynomolgus SIRPα extracellular domain + His-tag (EGM_02252) (cynomolgus monkey); assay: SPR, Ab captured, ECD-His analyte
T10 construct: also called CySIRPα EGM_02252; cynoSIRPα
T10 chain: T4 chain
How it was run: as §3

[11] = target: T11, full-length human SIRPγ (NP_061026.2) on cells (human, UniProt Q9P1W8 29-387); assay: flow cytometry, primary human CD3+ T cells
T11 construct: on CHO and Expi-CHO cells; endogenous on primary human CD3+ T cells; also called γ WT
T11 sequence (Q9P1W8 29-387): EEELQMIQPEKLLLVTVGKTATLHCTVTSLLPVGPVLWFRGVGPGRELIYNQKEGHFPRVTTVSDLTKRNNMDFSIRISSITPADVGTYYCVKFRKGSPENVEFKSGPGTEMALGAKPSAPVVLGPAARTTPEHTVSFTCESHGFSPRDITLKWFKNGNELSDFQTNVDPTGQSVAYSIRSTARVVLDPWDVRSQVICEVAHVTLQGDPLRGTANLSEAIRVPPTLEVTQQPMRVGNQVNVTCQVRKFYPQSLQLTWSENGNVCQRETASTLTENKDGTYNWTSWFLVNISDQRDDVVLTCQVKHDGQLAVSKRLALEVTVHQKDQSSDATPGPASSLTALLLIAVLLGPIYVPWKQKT
Method: Antibody binding to primary human T cells expressing endogenous SIRPγ is evaluated by flow cytometry. Human peripheral blood mononuclear cells (PBMCs) are blocked with donkey IgG and incubated on ice with increasing concentrations of antibody for 60 minutes, washed and stained with AF647-conjugated donkey F(ab′)₂ anti-human IgG secondary reagent. […] Cells are washed, fixed, and analyzed by flow cytometry. Median fluorescent intensity of CD3+ gated population is determined and used as a measure of antibody binding.

[12] = target: T12, full-length human SIRPβL (NP_001129316.1) on cells (human, UniProt Q5TFQ8 30-398); assay: flow cytometry, U937 SIRPα KO cells
T12 construct: on U937 SIRPα KO cells and Expi-CHO cells; also called βL WT; SIRPβ1v3
T12 sequence (Q5TFQ8 30-398): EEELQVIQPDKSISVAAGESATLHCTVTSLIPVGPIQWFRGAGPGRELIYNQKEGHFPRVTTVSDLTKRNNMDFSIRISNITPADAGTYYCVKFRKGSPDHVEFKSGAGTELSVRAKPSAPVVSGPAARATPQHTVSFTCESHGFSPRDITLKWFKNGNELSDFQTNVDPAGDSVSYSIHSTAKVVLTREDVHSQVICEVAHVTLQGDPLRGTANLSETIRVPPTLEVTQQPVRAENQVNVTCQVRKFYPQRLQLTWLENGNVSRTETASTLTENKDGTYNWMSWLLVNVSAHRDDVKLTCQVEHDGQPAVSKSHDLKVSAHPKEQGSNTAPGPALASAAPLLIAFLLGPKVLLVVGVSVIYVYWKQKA
Method: Antibody binding to cells expressing full-length human SIRPβ1 (NP_006056.2) and SIRPβL (NP_001129316.1) is evaluated by flow cytometry. SIRPβ1- or SIRPβL-expressing U937^{SIRPα KO} cells are blocked with donkey IgG and incubated on ice with increasing concentrations of antibodies for 60 minutes, washed and stained with AF647-conjugated donkey F(ab′)₂ anti-human IgG secondary reagent. Cells are washed, fixed, and analyzed by flow cytometry. Median fluorescent intensity is determined and used as a measure of antibody binding.

[13] = target: T13, human SIRPβL/SIRPβ1v3 extracellular domain + His-tag (NP_001129316.1) (human, UniProt Q5TFQ8 30-371); assay: SPR, Ab captured, ECD-His analyte
T13 construct: also called hSIRPβ1v3; HuSIRPβ1v3
T13 sequence (Q5TFQ8 other isoform, or with tags, fused parts or gaps): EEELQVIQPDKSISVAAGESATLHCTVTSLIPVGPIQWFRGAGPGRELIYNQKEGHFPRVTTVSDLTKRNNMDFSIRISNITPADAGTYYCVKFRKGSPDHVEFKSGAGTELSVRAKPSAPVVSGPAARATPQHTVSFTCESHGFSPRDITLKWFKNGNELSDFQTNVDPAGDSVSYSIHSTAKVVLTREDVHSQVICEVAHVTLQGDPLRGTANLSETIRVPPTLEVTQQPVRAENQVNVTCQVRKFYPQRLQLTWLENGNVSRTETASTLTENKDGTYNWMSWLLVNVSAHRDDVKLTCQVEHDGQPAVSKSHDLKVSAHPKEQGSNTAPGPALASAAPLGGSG
How it was run: as §3

[14] = target: T14, human SIRPβ1 extracellular domain + His-tag (NP_006056.2) (human, UniProt O00241 30-371); assay: SPR, Ab captured, ECD-His analyte
T14 construct: also called hSIRPβ1; HuSIRPβ1
T14 sequence (O00241 other isoform, or with tags, fused parts or gaps): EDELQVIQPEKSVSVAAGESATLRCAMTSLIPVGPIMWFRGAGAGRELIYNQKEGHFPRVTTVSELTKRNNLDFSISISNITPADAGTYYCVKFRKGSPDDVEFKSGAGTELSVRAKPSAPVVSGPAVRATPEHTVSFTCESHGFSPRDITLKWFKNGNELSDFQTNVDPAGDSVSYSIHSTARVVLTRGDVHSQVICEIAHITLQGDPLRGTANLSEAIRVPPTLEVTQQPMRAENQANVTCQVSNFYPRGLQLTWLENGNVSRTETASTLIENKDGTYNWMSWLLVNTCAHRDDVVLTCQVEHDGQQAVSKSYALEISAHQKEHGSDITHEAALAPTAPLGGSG
How it was run: as §3

[15] = target: T15, human SIRPγ extracellular domain + His-tag (NP_061026.2) (human, UniProt Q9P1W8 29-360); assay: SPR, Ab captured, ECD-His analyte
T15 construct: also called hSIRPγ; HuSIRPγ
T15 sequence (Q9P1W8 29-360): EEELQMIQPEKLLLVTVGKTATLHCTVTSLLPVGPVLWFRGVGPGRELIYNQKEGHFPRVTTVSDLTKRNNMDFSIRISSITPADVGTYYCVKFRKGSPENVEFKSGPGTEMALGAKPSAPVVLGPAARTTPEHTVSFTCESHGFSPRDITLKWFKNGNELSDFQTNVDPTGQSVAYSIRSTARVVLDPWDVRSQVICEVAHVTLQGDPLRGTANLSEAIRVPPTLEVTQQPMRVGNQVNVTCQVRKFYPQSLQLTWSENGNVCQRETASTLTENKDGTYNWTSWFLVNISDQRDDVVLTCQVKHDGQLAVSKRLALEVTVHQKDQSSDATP
How it was run: as §3

Kd [1]: 30.3 nM | Kd [2]: 50.3 nM | binding result [3]: no binding (tested: 1000 nM) | binding result [4]: no binding (tested: 1000 nM) | binding result [5]: no binding (tested: 1000 nM)
B1: Antibody E16 (antibody, human IgG1, kappa, L234A L235A, V domains shown)
VH: QVQLQESGPGLVRPSETLSLTCTVSGGSIRNYYWSWIRQPPGKGLEWIGFIYYNGRTFYNPSLKSRVTISLDTSKNQFSLKMTSVTAADTAVYYCARVRAYSGIGLDGTDVWGQGTTVTVSS
VL: DIVMTQSPLSLPVTPGEPASISCKSSQSLLYSNAYNYLDWYLQRPGQSPQLLIYLGSNRASGVPDRFSGSGSGTDFTLKISRVEAEDVGVYYCMQALQTPLTFGGGTKVEIKR

binding result [6]: binds
B2: Fab fragment of Antibody A (Fab, V domains shown)
VH: EVQLVESGGGLVQPGGSLRLSCAASGFTLSSYDMHWVRQATGKGLEWVSAIGTAGDTYYTGSVKGRFTISRENAKNSLYLQMNSLRAGDTAVYYCVRGGVWDDAFDIWGQGTMVTVSS
VL: DIQMTQSPSSLSASVGDRVTITCRASQDINNYLAWFQQKPGKAPKSLIYTASSLHSGVPSKFSGSGSGTDFTLTISSLQPEDFATYYCQQYVSYPYTFGQGTKLEIK
notes: Fab; also called Fab of Antibody A

binding result [7]: no binding | Kd [8]: 506 nM | Kd [9]: 227 nM | Kd [10]: 230 nM | binding result [11]: no binding | binding result [12]: no binding | binding result [13]: no binding (tested: 100 nM) | Kd [14]: 84 nM | binding result [15]: no binding (tested: 1000 nM)
B3: Antibody F (antibody, human IgG4 S228P, kappa)
heavy: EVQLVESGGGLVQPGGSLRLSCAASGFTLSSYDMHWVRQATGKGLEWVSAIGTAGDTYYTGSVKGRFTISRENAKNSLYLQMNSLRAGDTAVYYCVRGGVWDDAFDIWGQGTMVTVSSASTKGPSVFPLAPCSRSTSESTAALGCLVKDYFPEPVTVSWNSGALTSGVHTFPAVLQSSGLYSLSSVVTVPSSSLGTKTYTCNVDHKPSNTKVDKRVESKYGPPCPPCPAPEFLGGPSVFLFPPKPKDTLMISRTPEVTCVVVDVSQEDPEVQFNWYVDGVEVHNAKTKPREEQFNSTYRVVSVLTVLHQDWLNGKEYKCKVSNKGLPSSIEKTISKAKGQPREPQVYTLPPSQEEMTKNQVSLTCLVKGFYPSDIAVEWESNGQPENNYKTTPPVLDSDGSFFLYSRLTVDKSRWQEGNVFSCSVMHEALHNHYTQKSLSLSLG
light: DIQMTQSPSSLSASVGDRVTITCRASQDINNYLAWFQQKPGKAPKSLIYTASSLHSGVPSKFSGSGSGTDFTLTISSLQPEDFATYYCQQYVSYPYTFGQGTKLEIKRTVAAPSVFIFPPSDEQLKSGTASVVCLLNNFYPREAKVQWKVDNALQSGNSQESVTEQDSKDSTYSLSSTLTLSKADYEKHKVYACEVTHQGLSSPVTKSFNRGEC
